The experiment deals with human ApoB100 (human) (UniProt P04114). The experiment can be described thus: cell-based or functional assay.
Sequence of UniProt P04114 (P04114 28-4563 limits assumed): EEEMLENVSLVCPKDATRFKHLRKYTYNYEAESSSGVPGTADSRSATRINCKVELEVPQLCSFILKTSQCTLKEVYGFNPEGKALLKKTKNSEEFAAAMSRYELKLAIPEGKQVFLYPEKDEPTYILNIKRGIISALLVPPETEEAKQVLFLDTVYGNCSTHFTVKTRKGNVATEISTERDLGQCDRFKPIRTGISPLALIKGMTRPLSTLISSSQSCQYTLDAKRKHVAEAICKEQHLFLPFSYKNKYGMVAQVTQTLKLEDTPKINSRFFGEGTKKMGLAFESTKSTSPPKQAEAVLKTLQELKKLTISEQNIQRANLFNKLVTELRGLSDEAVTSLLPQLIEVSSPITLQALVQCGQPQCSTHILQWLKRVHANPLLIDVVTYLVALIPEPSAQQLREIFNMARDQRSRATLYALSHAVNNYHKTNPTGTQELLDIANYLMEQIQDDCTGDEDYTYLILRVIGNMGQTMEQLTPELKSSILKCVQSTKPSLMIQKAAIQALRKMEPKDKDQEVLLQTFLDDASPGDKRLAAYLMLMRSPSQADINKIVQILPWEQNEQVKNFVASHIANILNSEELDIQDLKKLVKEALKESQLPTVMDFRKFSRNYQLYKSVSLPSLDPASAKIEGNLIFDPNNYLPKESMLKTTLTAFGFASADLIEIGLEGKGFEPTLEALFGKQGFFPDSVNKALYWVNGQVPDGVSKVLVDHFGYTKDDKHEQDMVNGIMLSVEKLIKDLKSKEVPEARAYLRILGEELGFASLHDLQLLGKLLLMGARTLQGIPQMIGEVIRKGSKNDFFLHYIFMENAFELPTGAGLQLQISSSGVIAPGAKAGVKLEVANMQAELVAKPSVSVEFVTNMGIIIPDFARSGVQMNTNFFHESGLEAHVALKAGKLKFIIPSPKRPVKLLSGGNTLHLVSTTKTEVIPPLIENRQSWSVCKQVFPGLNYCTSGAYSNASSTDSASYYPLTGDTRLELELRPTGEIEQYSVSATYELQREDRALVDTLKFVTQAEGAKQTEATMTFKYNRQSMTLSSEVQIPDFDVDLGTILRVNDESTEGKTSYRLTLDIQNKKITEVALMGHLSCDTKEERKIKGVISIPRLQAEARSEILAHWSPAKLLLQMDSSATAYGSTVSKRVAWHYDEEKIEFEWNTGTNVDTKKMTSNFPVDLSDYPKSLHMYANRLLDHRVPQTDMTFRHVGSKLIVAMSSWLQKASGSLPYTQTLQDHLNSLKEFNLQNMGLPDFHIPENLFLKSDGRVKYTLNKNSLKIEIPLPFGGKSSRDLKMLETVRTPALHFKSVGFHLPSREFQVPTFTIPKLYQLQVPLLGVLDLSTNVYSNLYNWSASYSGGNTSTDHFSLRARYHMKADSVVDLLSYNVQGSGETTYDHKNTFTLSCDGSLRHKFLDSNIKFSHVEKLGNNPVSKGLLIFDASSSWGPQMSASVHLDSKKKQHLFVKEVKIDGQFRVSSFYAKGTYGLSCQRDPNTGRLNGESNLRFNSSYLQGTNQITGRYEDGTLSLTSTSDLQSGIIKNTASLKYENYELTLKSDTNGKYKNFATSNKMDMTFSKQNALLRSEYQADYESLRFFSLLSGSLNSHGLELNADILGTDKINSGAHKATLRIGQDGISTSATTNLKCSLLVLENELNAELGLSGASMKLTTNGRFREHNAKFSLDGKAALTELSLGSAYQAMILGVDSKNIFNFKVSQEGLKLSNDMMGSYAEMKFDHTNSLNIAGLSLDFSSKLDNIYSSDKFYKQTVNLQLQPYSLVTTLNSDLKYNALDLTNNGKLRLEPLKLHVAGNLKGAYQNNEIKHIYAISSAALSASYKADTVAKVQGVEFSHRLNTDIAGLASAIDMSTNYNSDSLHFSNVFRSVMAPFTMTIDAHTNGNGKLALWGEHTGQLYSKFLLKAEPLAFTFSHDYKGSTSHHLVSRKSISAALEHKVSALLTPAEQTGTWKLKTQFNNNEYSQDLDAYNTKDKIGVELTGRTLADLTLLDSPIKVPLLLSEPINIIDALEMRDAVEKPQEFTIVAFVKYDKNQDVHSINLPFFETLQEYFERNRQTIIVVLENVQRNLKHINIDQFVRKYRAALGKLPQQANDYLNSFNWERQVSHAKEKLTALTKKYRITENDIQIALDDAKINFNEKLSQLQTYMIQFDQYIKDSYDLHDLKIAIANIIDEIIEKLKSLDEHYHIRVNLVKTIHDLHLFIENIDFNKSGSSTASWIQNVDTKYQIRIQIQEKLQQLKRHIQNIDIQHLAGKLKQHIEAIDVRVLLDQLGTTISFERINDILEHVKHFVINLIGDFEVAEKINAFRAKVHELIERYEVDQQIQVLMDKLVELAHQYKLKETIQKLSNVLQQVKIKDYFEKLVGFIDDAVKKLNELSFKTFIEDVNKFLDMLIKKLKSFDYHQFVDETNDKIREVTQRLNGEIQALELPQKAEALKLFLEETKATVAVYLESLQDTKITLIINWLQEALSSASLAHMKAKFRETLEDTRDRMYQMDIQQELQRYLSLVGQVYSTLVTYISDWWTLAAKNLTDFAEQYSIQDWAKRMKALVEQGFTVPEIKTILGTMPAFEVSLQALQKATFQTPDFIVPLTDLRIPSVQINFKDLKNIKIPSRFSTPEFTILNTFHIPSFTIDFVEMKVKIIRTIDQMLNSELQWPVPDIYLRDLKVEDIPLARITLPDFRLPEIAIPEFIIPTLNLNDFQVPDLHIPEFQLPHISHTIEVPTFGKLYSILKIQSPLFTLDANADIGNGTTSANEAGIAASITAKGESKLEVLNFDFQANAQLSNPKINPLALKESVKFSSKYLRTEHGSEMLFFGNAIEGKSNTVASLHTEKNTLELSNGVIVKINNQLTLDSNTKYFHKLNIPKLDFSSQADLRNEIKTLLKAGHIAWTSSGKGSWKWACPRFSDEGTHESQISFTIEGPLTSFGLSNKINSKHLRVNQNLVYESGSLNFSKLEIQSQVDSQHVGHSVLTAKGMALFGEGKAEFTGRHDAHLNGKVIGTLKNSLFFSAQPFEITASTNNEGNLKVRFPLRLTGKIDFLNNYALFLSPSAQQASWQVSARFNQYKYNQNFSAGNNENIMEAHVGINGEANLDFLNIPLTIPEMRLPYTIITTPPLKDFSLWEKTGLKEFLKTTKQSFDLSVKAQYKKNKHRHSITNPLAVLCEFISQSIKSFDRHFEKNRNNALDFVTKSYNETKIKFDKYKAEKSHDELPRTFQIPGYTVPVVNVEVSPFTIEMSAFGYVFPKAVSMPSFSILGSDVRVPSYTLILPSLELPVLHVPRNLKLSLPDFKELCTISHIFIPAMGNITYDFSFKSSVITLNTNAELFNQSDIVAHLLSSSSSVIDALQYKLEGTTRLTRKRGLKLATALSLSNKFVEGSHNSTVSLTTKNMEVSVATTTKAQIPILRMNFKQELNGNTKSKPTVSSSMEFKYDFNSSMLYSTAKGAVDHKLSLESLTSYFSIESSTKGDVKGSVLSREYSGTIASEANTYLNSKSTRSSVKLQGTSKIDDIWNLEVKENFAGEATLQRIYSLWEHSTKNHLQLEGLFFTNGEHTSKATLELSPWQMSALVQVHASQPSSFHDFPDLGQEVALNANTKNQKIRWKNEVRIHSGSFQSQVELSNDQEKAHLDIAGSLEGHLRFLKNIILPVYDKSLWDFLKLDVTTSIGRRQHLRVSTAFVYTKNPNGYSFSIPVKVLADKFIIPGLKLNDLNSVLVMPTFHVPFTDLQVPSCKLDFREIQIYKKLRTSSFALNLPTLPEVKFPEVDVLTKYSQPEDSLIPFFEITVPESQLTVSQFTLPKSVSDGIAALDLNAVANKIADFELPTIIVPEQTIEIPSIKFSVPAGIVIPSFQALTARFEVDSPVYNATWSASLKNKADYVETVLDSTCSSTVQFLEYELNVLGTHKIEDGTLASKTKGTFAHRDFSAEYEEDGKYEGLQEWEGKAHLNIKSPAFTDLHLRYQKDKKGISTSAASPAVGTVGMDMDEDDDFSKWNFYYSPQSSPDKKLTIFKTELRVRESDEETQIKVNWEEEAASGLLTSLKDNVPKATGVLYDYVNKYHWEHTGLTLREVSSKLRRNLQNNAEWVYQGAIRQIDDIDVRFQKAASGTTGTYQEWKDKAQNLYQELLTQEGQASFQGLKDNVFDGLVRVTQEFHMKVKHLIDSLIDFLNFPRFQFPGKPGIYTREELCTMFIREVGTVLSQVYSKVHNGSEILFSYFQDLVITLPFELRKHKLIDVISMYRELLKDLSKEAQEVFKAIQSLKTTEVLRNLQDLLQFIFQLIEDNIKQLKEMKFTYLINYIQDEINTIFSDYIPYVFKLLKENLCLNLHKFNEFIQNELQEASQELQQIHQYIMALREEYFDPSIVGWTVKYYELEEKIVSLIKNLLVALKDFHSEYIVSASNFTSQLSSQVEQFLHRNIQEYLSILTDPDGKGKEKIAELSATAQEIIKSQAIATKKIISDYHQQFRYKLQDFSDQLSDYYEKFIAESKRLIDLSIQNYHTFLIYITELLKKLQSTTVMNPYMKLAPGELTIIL

In turn, “human low density lipoprotein receptor (hLDLR) (from UniProt P01130 22-860)” came in with a reduction of serum cholesterol in LAHB mice after AAV8.TBG.hLDLR of 30%.

For the origin of these results see patent US20210285013A1.
